In US20200230168, “NUCLEIC ACID OLIGOMERS AND USES THEREFOR” (Queensland University of Technology, published 2020):

Key:
[1] = biological target: T1, hSSB1 (Homo sapiens, UniProt Q9BQ15 Q9BQ15:1-211); test: SPR; LSA_In3E3 = 1
[2] = biological target: T2, THOC4 (ALYREF) (UniProt Q86V81 Q86V81:2-257); test: SPR; LSA_In3E3 = 1
[3] = biological target: T1, hSSB1; test: SPR
[4] = biological target: T2, THOC4 (ALYREF); test: SPR

T1 sequence (Q9BQ15 whole entry, one chain of several): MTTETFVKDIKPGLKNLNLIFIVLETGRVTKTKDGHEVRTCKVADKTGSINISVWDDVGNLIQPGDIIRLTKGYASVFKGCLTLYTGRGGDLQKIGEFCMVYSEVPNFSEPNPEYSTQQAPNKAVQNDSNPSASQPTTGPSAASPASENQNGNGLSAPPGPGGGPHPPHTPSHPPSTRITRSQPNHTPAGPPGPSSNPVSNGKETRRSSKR

CAGUGAGCCGGACUUGCC (ssRNA, 2'-OMe all, PS all) [In3E3 both-end truncation 18 nt] was tested, and the binding signal [1] was 0.91 normalized Rmax and the binding signal [2] was 0.96 normalized Rmax.

For GCGGUGAACCGGAGUUGGCU (ssRNA, 2'-OMe all, full PS) [DKLS438994 (SEQ 66)], the binding signal [3] was 1.03 normalized Rmax and the binding signal [4] was 1.11 normalized Rmax.

Binder GGAGGGAGUCGGACUUGUCU (ssRNA, 2'-OMe all, full PS) [DKLS444294 (SEQ 65)] has a binding signal [3] of 1.58 normalized Rmax and a binding signal [4] of 1.78 normalized Rmax.

Binder GGCACGUCCGCCAGUCAUGU (ssRNA, 2'-OMe all, full PS) [DKLS656105 (SEQ 56)] has a binding signal [3] of 0.73 normalized Rmax and a binding signal [4] of 0.23 normalized Rmax.

CCAGUGAGCCGGACUU (ssRNA, 2'-OMe all, PS all) [In3E3 3' truncation 16 nt] gave a binding signal [1] of 0.4 normalized Rmax and a binding signal [2] of 0.38 normalized Rmax.

In the case of AGCCGGACUUGCCU (ssRNA, 2'-OMe all, PS all) [In3E3 5' truncation 14 nt], the binding signal [1] is reported as 0.3 normalized Rmax and the binding signal [2] is reported as 0.09 normalized Rmax.

CCAGUGAGCCGGACUUGCCU (ssRNA, 2'-OMe all, phosphodiester, ZEN at both ends) [In3E3 ZEN (DKLS991101)] showed a binding signal [1] of 0.17 normalized Rmax.

GCCACCCGUCGGUUGCUAGA (ssRNA, 2'-OMe all, full PS) [DKLS659460 (SEQ 52)] gave a binding signal [3] of 1.65 normalized Rmax and a binding signal [4] of 0.89 normalized Rmax.

UUGACAGAUUAAGUCCAUUC (ssRNA, 2'-OMe all, full PS) [DKLS675388 (SEQ 51)] showed a binding signal [3] of 0.89 normalized Rmax and a binding signal [4] of 0.15 normalized Rmax.

CCAGUGAGCCGGACUUGC (ssRNA, 2'-OMe all, PS all) [In3E3 3' truncation 18 nt] showed a binding signal [1] of 0.67 normalized Rmax and a binding signal [2] of 0.87 normalized Rmax.

In the case of CCUGUGUGCCCCUCUUCCCU (ssRNA, 2'-OMe all, full PS) [DKLS374580 (SEQ 58)], the binding signal [3] is reported as 0.68 normalized Rmax and the binding signal [4] is reported as 0.12 normalized Rmax.

AGGCAAGUCCGGCUCACUGG (ssRNA, 2'-OMe all, PS all) [RevIn3LSA (DKLS481254)] gave a binding signal [1] of 0.82 normalized Rmax and a binding signal [2] of 0.76 normalized Rmax.

UGAGCCGGACUUGCCU (ssRNA, 2'-OMe all, PS all) [In3E3 5' truncation 16 nt] showed a binding signal [1] of 0.48 normalized Rmax and a binding signal [2] of 0.24 normalized Rmax.

For CUAGUAAGUCGGACUUGCCU (ssRNA, 2'-OMe all, full PS) [DKLS447399 (SEQ 63)], the binding signal [3] was 1.22 normalized Rmax and the binding signal [4] was 1.22 normalized Rmax.

CCAGUGAG (ssRNA, 2'-OMe all, PS all [2'-OMe at 1-8 (all); PS at all linkages]) [In3E3 3' truncation 8 nt] was tested, and the binding signal [1] was 0.09 normalized Rmax and the binding signal [2] was -0.05 normalized Rmax.

Binder CCUGUCAGCCGCACUUGCCU (ssRNA, 2'-OMe all, full PS) [DKLS463357 (SEQ 59)] has a binding signal [3] of 0.95 normalized Rmax and a binding signal [4] of 0.39 normalized Rmax.

Binder CCAGUGAGCCGGA (ssRNA, 2'-OMe all, PS all) [In3E3 3' truncation 13 nt] has a binding signal [1] of 0.53 normalized Rmax and a binding signal [2] of 0.08 normalized Rmax.

In the case of GUGCAUGGAAUCACGGAGUG (ssRNA, PS all, no sugar modification) [Open_A PS only (DKLS669778)], the binding signal [1] is reported as 1.3 normalized Rmax and the binding signal [2] is reported as 0.76 normalized Rmax.

For CUCAUUCCUACCGACACCCC (ssRNA, 2'-OMe all, phosphodiester, ZEN at both ends) [Neg_C ZEN (DKLS789189)], the binding signal [1] was 0.09 normalized Rmax and the binding signal [2] was 0.03 normalized Rmax.

CCAGUGAGCCGGACU (ssRNA, 2'-OMe all, PS all) [In3E3 3' truncation 15 nt] was tested, and the binding signal [1] was 0.36 normalized Rmax and the binding signal [2] was -0.09 normalized Rmax.

In the case of CCAGUGAGCCGGACUUGCCU (ssRNA, PS all, no sugar modification) [In3E3 PS only (DKLS426690)], the binding signal [1] is reported as 0.99 normalized Rmax and the binding signal [2] is reported as 1.06 normalized Rmax.

With UGAGCCGGACUU (ssRNA, 2'-OMe all, PS all) [In3E3 both-end truncation 12 nt] the binding signal [1] was 0.2 normalized Rmax and the binding signal [2] was 0.08 normalized Rmax.

GCGGGUCCUCUACGCACUGA (ssRNA, 2'-OMe all, full PS) [DKLS649547 (SEQ 53)] showed a binding signal [3] of 1.55 normalized Rmax and a binding signal [4] of 0.85 normalized Rmax.

CCAGUGAGCCGAACUUCUCU (ssRNA, 2'-OMe all, full PS) [DKLS459014 (SEQ 62)] showed a binding signal [3] of 0.55 normalized Rmax and a binding signal [4] of 0.26 normalized Rmax.

For GUGAGCCGGACUUG (ssRNA, 2'-OMe all, PS all) [In3E3 both-end truncation 14 nt], the binding signal [1] was 0.45 normalized Rmax and the binding signal [2] was 0.48 normalized Rmax.

With CCAGUGAGCCGG (ssRNA, 2'-OMe all, PS all) [In3E3 3' truncation 12 nt] the binding signal [1] was 0.24 normalized Rmax and the binding signal [2] was 0 normalized Rmax.

CCACUGAGCCCGACUUCCCU (ssRNA, 2'-OMe all, full PS) [DKLS459520 (SEQ 60)] was tested, and the binding signal [3] was 0.63 normalized Rmax and the binding signal [4] was 0.03 normalized Rmax.

With CGUGUCAUCCGCUCUCGACU (ssRNA, 2'-OMe all, PS all) [LSA_In3E3_CT4] the binding signal [1] was 0.8 normalized Rmax and the binding signal [2] was 0.21 normalized Rmax.

AGUGAGCCGGACUUGC (ssRNA, 2'-OMe all, PS all) [In3E3 both-end truncation 16 nt] showed a binding signal [1] of 0.71 normalized Rmax and a binding signal [2] of 0.68 normalized Rmax.

In the case of CCAGUAAGCCAGACUUGCAU (ssRNA, 2'-OMe all, full PS) [DKLS399970 (SEQ 61)], the binding signal [3] is reported as 0.64 normalized Rmax and the binding signal [4] is reported as 0.3 normalized Rmax.

In the case of GGGCCUCCCGCACUUGAGAU (ssRNA, 2'-OMe all, full PS) [DKLS679059 (SEQ 55)], the binding signal [3] is reported as 0.85 normalized Rmax and the binding signal [4] is reported as 0.37 normalized Rmax.

In the case of CAGAGGCAGCAGUACGACGGCAGAGGCAGC (ssRNA, 2'-OMe all, PS all) [LSA_ATG 30-mer (DKLS428543)], the binding signal [1] is reported as 1.89 normalized Rmax and the binding signal [2] is reported as 1.21 normalized Rmax.

GCCCGUCUGGCGCAUAGCUA (ssRNA, 2'-OMe all, full PS) [DKLS646683 (SEQ 54)] gave a binding signal [3] of 0.98 normalized Rmax and a binding signal [4] of 0.85 normalized Rmax.

In the case of CCAGUGAGCCGGACUUGCCU (ssRNA, 2'-OMe all, PS three at each end) [In3E3 2'-OMe PS ends (DKLS621499)], the binding signal [1] is reported as 0.12 normalized Rmax.

Work on CCUCUCUGCCGCUCUUGCCU (ssRNA, 2'-OMe all, full PS) [DKLS420640 (SEQ 57)] yielded a binding signal [3] of 0.48 normalized Rmax and a binding signal [4] of 0.03 normalized Rmax.

For UACCGCGUGCGACCCUCU (ssRNA, 2'-OMe all, full PS) [DKLS784557 (SEQ 10)], the binding signal [3] was 0.69 normalized Rmax and the binding signal [4] was 0.49 normalized Rmax.

CUCAUUCCUACCGACACCCC (ssRNA, 2'-OMe all, phosphodiester) [Neg_C 2'-OMe PD (DKLS341370)] showed a binding signal [1] of 0.37 normalized Rmax and a binding signal [2] of 0.08 normalized Rmax.

For CCAGUGAGCCG (ssRNA, 2'-OMe all, full PS) [In3E3 3' truncation 11 nt], the binding signal [3] was 0.15 normalized Rmax and the binding signal [4] was -0.03 normalized Rmax.

CCAGUGAGCC (ssRNA, 2'-OMe all, PS all) [In3E3 3' truncation 10 nt] gave a binding signal [1] of 0.11 normalized Rmax and a binding signal [2] of -0.01 normalized Rmax.

For CCAGACAGCUGGUGUCGCCU (ssRNA, 2'-OMe all, PS all) [In3LSA_scr3_5], the binding signal [1] was 0.75 normalized Rmax and the binding signal [2] was 0.43 normalized Rmax.

Binder CCGGACUUGCCU (ssRNA, 2'-OMe all, PS all) [In3E3 5' truncation 12 nt] has a binding signal [1] of 0.13 normalized Rmax and a binding signal [2] of 0.07 normalized Rmax.

Work on CCAGUGAGCCGGACUUG (ssRNA, 2'-OMe all, PS all) [In3E3 3' truncation 17 nt] yielded a binding signal [1] of 0.59 normalized Rmax and a binding signal [2] of 0.69 normalized Rmax.

In the case of CCAGUGAGCCGGAC (ssRNA, 2'-OMe all, PS all) [In3E3 3' truncation 14 nt], the binding signal [1] is reported as 0.35 normalized Rmax and the binding signal [2] is reported as 0.08 normalized Rmax.

With GUGAGCCGGACUUGCCU (ssRNA, 2'-OMe all, PS all) [In3E3 5' truncation 17 nt] the binding signal [1] was 0.83 normalized Rmax and the binding signal [2] was 0.23 normalized Rmax.

GUGCAUGGAAUCACGGAGUGGUGCAUGGAA (ssRNA, 2'-OMe all, PS all) [Open_A 30-mer (DKLS722361)] showed a binding signal [1] of 4.08 normalized Rmax and a binding signal [2] of 1.53 normalized Rmax.

Binder CAGAGGCAGCAGUACGACGG (ssRNA, 2'-OMe all, PS three at each end) [LSA_ATG 2'-OMe PS ends (DKLS286198)] has a binding signal [1] of 0.17 normalized Rmax.

CCAGUGAGCCGGACUUGCC (ssRNA, 2'-OMe all, PS all) [In3E3 3' truncation 19 nt] gave a binding signal [1] of 0.68 normalized Rmax and a binding signal [2] of 0.9 normalized Rmax.

In the case of CCAGUGAGCUGGACUUGCCU (ssRNA, 2'-OMe all, PS all) [In3LSA_CU], the binding signal [1] is reported as 0.97 normalized Rmax and the binding signal [2] is reported as 0.54 normalized Rmax.

CCAGGGAGCCGGACUUGGCG (ssRNA, 2'-OMe all, full PS) [DKLS712428 (SEQ 64)] gave a binding signal [3] of 0.7 normalized Rmax and a binding signal [4] of 0.51 normalized Rmax.

Work on CAGUGAGCCGGACUUGCCU (ssRNA, 2'-OMe all, PS all) [In3E3 5' truncation 19 nt] yielded a binding signal [1] of 0.92 normalized Rmax and a binding signal [2] of 0.87 normalized Rmax.

AGUGAGCCGGACUUGCCU (ssRNA, 2'-OMe all, PS all) [In3E3 5' truncation 18 nt] showed a binding signal [1] of 0.84 normalized Rmax and a binding signal [2] of 0.84 normalized Rmax.

With CCGGUGAGCGACACUAGGCU (ssRNA, 2'-OMe all, PS all) [In3LSA_scr3_4] the binding signal [1] was 0.77 normalized Rmax and the binding signal [2] was 0.66 normalized Rmax.

CAGAGGCAGCAGUACGACGG (ssRNA, 2'-OMe all, PS all) [LSA_ATG] was tested, and the binding signal [1] was 1.1 normalized Rmax and the binding signal [2] was 0.96 normalized Rmax.

UCUCCCAGCGUGCGCCAU (ssRNA, 2'-OMe all, full PS) [DKLS696616 (SEQ 9)] gave a binding signal [3] of 0.79 normalized Rmax and a binding signal [4] of 1.12 normalized Rmax.

For GGACUUGCCU (ssRNA, 2'-OMe all, PS all) [In3E3 5' truncation 10 nt], the binding signal [1] was 0.07 normalized Rmax and the binding signal [2] was -0.01 normalized Rmax.

CAGAGGCAGCAGUACGACGG (ssRNA, PS all, no sugar modification) [LSA_ATG PS only (DKLS577569)] showed a binding signal [1] of 1.44 normalized Rmax and a binding signal [2] of 1.03 normalized Rmax.

Binder GAGCCGGACUUGCCU (ssRNA, 2'-OMe all, PS all) [In3E3 5' truncation 15 nt] has a binding signal [1] of 0.4 normalized Rmax and a binding signal [2] of 0.45 normalized Rmax.
